Source: patent US8551717B2, “Method for determining sumoylation” (Medizinische Hochschule Hannover, priority 2008, dated 2013)
Values belong to the molecule of their own block, whether it stands above or below them.

Key:
p53-U = target: T1, p53-U (Homo sapiens, UniProt P04637+P63279); test: Trans-SUMOylation by p53-U; assay type: cell-based; conditions: western blot
T1 construct: expressed in transfected cells; host or cells: HEK293

U-CDC37 = target: T2, U-CDC37 (Homo sapiens, UniProt P63279+Q16543); test: Trans-SUMOylation by U-CDC37; assay type: cell-based; design: key: (++), strong TransSUMOylation; (+), TransSUMOylation; (+/−) weak TransSUMOylation; (−) no detectable TransSUMOylation; conditions: protein 2 construct coexpressed with U-CDC37 and EGFP-SUMO1 in HEK293; western blot; Table 1
T2 construct: expressed in transfected cells; host or cells: HEK293
From the text: (§1) To identify new SUMOylation substrates and to study the function of SUMOylation the Ubc9/substrate dimerisation-dependent SUMOylation system (USDDS) was developed which consists of fusions of the SUMOylation substrate and of the SUMO-conjugating enzyme Ubc9 to the chemically activatable heterodimerisation domains FKBP and FRB, respectively, as shown in FIG. 2. When the substrate protein fused to FKBP is coexpressed with Ubc9-FRB, treatment of HEK293 cells with the rapamycin-related dimerizer AP21967 induces SUMOylation of the substrate protein fused to FKBP at its specific SUMOylation site. […] Dependent on an EcoRl site in the coding sequence, seven C-terminal amino acids of the human STAT1a in the STAT1-FKBP/FRB fusion proteins are missing. For the SUMOylation analysis HEK293 (human embryonic kidney cells) cells have been used. HEK293 cells were cultured in Dulbecco's modified Eagle's medium with high glucose, complemented with 10% fetal calf serum, 2 mM L-glutamine, 100 U/ml penicillin and […] streptomycin. […]
(§2) As shown above, the SUMOylation of a protein of interest can be induced by the heterodimerisation with a binding protein fused to Ubc9. […] Therefore the protein pairs were coexpressed with EGFP-SUMO1 in HEK293 cells and after 24h the transfectants were lysed and the protein extracts were analyzed in western blots. […]

JUN-U = target: T3, JUN-U (Homo sapiens, UniProt P05412+P63279); test: Trans-SUMOylation by JUN-U; assay type: cell-based; conditions: protein 2 construct coexpressed with JUN-U and EGFP-SUMO1 in HEK293, western blot
T3 construct: expressed in transfected cells; host or cells: HEK293

STAT1 = test: Interplay of STAT1 Y701 phosphorylation and K703 SUMOylation by USDDS, western blot; assay type: cell-based, human; conditions: HEK293, USDDS with AP21967 1 μM and interferon-β, any stimulation scenario
Ubc9-FKBP = target: T4, Ubc9-FKBP (Homo sapiens, UniProt P42345+P63279); test: USDDS specificity for SUMOylation sites (K-to-R mutants), western blot; assay type: cell-based; conditions: HEK293, coexpressed with Ubc9-FKBP and EGFP-SUMO1, stimulated with AP21967 1 μM
T4 construct: expressed in transfected cells; host or cells: HEK293

U-MK2 = target: T5, U-MK2 (Homo sapiens, UniProt P49137+P63279); test: Trans-SUMOylation by U-MK2; assay type: cell-based; conditions: protein 2 construct coexpressed with U-MK2 and EGFP-SUMO1 in HEK293; western blot; Table 2
T5 construct: expressed in transfected cells; host or cells: HEK293

MK2-U = target: T6, MK2-U (Homo sapiens, UniProt P49137+P63279); test: Trans-SUMOylation by MK2-U; assay type: cell-based; conditions: protein 2 construct coexpressed with MK2-U and EGFP-SUMO1 in HEK293; western blot; Table 2
T6 construct: expressed in transfected cells; host or cells: HEK293

U-MK5 = target: T7, U-MK5 (Homo sapiens, UniProt P63279+Q8IW41); test: Trans-SUMOylation by U-MK5; assay type: cell-based; design: key: (++), strong TransSUMOylation; (+), TransSUMOylation; (+/−) weak TransSUMOylation; (−) no detectable TransSUMOylation; conditions: protein 2 construct coexpressed with U-MK5 and EGFP-SUMO1 in HEK293; western blot; Table 2
T7 construct: expressed in transfected cells; host or cells: HEK293
From the text: as §1, §2

U-p38α = target: T8, U-p38α (Homo sapiens, UniProt P63279+Q16539); test: Trans-SUMOylation by U-p38α; assay type: cell-based; conditions: protein 2 construct coexpressed with U-p38α and EGFP-SUMO1 in HEK293; western blot; Table 2
T8 construct: expressed in transfected cells; host or cells: HEK293

[1] = protein 2 construct coexpressed with p53-U and EGFP-SUMO1 in HEK293, Table 2

T3 sequence (P05412+P63279 fused): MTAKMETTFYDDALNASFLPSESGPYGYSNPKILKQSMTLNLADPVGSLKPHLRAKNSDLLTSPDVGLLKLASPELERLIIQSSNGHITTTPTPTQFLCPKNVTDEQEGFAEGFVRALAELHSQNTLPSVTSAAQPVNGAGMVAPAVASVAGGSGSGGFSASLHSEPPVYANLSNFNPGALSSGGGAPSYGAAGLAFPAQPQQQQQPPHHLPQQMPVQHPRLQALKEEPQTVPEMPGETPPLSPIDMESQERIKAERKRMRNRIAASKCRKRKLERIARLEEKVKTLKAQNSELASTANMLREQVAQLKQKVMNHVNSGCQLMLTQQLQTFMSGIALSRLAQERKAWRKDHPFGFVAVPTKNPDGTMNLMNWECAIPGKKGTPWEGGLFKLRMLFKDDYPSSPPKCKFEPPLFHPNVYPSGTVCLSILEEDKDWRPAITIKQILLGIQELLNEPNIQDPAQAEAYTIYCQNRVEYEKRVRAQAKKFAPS
T8 sequence (P63279+Q16539 fused): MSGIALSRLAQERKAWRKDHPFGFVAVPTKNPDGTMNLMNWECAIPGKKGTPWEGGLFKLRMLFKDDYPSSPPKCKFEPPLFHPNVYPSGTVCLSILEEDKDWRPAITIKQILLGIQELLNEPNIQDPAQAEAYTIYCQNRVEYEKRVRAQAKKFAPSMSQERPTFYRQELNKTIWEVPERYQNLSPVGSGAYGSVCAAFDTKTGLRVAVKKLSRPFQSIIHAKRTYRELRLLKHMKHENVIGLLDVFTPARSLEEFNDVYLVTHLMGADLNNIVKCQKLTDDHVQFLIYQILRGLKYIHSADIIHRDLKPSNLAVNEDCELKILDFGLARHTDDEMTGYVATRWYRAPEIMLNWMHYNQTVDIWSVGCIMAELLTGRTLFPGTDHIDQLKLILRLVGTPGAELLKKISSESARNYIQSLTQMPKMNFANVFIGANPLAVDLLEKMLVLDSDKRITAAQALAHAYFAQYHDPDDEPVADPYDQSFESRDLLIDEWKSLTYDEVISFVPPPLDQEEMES
T2 sequence (P63279+Q16543 fused): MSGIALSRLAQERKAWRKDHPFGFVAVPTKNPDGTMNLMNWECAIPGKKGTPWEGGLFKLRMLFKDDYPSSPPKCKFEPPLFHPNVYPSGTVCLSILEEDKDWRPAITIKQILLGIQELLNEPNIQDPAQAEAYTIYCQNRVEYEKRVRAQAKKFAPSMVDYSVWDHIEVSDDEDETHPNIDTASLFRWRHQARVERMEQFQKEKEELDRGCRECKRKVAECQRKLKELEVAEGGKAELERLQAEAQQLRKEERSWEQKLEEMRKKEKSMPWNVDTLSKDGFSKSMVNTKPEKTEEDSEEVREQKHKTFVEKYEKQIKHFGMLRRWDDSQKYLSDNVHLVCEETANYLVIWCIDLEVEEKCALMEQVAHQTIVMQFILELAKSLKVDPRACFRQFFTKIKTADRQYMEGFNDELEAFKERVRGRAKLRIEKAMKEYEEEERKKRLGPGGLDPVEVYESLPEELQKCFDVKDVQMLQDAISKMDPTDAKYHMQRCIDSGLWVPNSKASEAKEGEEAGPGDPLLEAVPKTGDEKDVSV
T4 sequence (P63279 with tags, fused parts or gaps): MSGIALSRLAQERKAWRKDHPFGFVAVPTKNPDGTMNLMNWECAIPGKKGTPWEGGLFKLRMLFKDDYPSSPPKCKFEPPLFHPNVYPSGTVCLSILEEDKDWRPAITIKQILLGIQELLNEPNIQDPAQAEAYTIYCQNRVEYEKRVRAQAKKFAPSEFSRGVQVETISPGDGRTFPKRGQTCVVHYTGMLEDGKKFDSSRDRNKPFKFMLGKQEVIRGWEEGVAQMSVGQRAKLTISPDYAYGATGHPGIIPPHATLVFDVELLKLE
T4 sequence (P42345 2021-2113 limits assumed): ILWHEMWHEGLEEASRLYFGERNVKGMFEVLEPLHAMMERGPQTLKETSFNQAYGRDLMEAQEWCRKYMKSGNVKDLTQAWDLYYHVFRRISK
T5 sequence (P63279+P49137 fused): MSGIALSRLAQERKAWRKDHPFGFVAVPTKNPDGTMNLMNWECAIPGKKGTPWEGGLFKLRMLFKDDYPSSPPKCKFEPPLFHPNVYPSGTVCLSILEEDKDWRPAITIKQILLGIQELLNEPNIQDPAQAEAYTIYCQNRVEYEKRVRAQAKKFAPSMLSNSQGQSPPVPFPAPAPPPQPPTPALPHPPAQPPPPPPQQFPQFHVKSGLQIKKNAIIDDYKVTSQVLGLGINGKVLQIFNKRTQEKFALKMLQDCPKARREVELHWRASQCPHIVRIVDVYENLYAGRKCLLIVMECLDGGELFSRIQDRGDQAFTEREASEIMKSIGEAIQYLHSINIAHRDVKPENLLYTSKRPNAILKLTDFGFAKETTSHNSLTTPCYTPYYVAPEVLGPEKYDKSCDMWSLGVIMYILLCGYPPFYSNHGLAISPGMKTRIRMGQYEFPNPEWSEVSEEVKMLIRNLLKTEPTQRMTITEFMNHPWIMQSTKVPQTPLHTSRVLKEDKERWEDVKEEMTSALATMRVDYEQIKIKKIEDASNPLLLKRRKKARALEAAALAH
T6 sequence (P49137+P63279 fused): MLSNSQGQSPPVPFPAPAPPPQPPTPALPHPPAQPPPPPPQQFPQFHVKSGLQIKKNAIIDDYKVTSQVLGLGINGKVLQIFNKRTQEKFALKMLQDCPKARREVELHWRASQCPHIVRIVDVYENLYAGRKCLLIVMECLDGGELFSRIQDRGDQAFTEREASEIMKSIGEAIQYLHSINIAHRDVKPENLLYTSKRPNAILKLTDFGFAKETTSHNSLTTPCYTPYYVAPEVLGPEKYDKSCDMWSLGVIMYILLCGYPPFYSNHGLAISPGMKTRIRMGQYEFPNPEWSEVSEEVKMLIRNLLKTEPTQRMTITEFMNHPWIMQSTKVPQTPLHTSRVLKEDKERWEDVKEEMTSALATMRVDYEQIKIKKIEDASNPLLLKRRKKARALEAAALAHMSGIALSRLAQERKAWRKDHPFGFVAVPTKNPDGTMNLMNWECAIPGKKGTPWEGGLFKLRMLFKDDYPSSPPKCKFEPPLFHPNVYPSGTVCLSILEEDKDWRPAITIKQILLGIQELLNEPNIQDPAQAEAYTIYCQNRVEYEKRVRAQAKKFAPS
T7 sequence (P63279+Q8IW41 fused): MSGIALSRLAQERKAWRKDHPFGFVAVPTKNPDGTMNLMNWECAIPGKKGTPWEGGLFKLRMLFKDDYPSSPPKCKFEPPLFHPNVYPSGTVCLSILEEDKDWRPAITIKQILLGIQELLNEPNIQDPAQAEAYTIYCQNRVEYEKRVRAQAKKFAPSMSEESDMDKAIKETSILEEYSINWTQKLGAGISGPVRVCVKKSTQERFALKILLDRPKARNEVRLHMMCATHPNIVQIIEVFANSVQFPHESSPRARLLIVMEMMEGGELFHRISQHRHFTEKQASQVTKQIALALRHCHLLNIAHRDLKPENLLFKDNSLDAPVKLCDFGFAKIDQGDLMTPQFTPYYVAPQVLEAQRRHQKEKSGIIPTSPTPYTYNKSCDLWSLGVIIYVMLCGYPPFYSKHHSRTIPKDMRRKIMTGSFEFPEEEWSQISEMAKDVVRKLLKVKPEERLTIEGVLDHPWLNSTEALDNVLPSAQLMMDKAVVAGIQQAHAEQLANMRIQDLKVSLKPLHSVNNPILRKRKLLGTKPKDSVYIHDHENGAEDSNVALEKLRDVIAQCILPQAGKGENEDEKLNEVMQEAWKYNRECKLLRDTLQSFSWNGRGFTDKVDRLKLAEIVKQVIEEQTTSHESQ

Trans-SUMOylation (p53-U; [1]): −
Trans-SUMOylation (U-CDC37): +
B1: GST-CDK4: CDK4 fused to GST tag (protein, UniProt P11802 2-303, looked up)
Cyclin-dependent kinase 4: ATSRYEPVAEIGVGAYGTVYKARDPHSGHFVALKSVRVPNGGGGGGGLPISTVREVALLRRLEAFEHPNVVRLMDVCATSRTDREIKVTLVFEHVDQDLRTYLDKAPPPGLPAETIKDLMRQFLRGLDFLHANCIVHRDLKPENILVTSGGTVKLADFGLARIYSYQMALTPVVVTLWYRAPEVLLQSTYATPVDMWSVGCIFAEMFRRKPLFCGNSEADQLGKIFDLIGLPPEDDWPRDVSLPRGAFPPRGPRPVQSVVPEMEESGAQLLLEMLTFNPHKRISAFRALQHSYLHKDEGNPE
modifications: GST tag

Trans-SUMOylation (p53-U; protein 2 construct coexpressed with P53-U (p53-U) and EGFP-SUMO1 in HEK293, Table 1): −
Trans-SUMOylation (JUN-U; Table 1): −
B2: HA-JNK1: JNK1 fused to HA tag (protein)
chain: MSRSKRDNNFYSVEIGDSTFTVLKRYQNLKPIGSGAQGIVCAAYDAILERNVAIKKLSRPFQNQTHAKRAYRELVLMKCVNHKNIIGLLNVFTPQKSLEEFQDVYIVMELMDANLCQVIQMELDHERMSYLLYQMLCGIKHLHSAGIIHRDLKPSNIVVKSDCTLKILDFGLARTAGTSFMMTPYVVTRYYRAPEVILGMGYKENVDLWSVGCIMGEMVCHKILFPGRDYIDQWNKVIEQLGTPCPEFMKKLQPTVRTYVENRPKYAGYSFEKLFPDVLFPADSEHNKLKASQARDLLSKMLVIDASKRISVDEALQHPYINVWYDPSEAEAPPPKIPDKQLDEREHTIEEWKELIYKEVMDLEERTKNGVIRGQPSPLAQVQQ
modifications: left off: small tags and cut ends
notes: JNK1 fused to HA tag

B3: STAT1-FRB: human STAT1a fused to FRB (T2098L) heterodimerisation domain (protein)
chain: MSQWYELQQLDSKFLEQVHQLYDDSFPMEIRQYLAQWLEKQDWEHAANDVSFATIRFHDLLSQLDDQYSRFSLENNFLLQHNIRKSKRNLQDNFQEDPIQMSMIIYSCLKEERKILENAQRFNQAQSGNIQSTVMLDKQKELDSKVRNVKDKVMCIEHEIKSLEDLQDEYDFKCKTLQNREHETNGVAKSDQKQEQLLLKKMYLMLDNKRKEVVHKIIELLNVTELTQNALINDELVEWKRRQQSACIGGPPNACLDQLQNWFTIVAESLQQVRQQLKKLEELEQKYTYEHDPITKNKQVLWDRTFSLFQQLIQSSFVVERQPCMPTHPQRPLVLKTGVQFTVKLRLLVKLQELNYNLKVKVLFDKDVNERNTVKGFRKFNILGTHTKVMNMEESTNGSLAAEFRHLQLKEQKNAGTRTNEGPLIVTEELHSLSFETQLCQPGLVIDLETTSLPVVVISNVSQLPSGWASILWYNMLVAEPRNLSFFLTPPCARWAQLSEVLSWQFSSVTKRGLNVDQLNMLGEKLLGPNASPDGLIPWTRFCKENINDKNFPFWLWIESILELIKKHLLPLWNDGCIMGFISKERERALLKDQQPGTFLLRFSESSREGAITFTWVERSQNGGEPDFHAVEPYTKKELSAVTFPDIIRNYKVMAAENIPENPLKYLYPNIDKDHAFGKYYSRPKEAPEPMELDGPKGTGYIKTELISVSEVHPSRLQTTDNLLPMSPEEFDEVSRIVGSVEFILWHEMWHEGLEEASRLYFGERNVKGMFEVLEPLHAMMERGPQTLKETSFNQAYGRDLMEAQEWCRKYMKSGNVKDLLQAWDLYYHVFRRISK
double modification of STAT1 by SUMOylation and Y701 phosphorylation (STAT1): no double modification

SUMOylation of mutant fusion protein (Ubc9-FKBP): nearly no SUMOylation
B4: STAT1K703R-FRB: STAT1 SUMOylation site mutant K703R fused to FRB (protein, UniProt P42224 2-750, looked up, variant K703R)
Signal transducer and …: SQWYELQQLDSKFLEQVHQLYDDSFPMEIRQYLAQWLEKQDWEHAANDVSFATIRFHDLLSQLDDQYSRFSLENNFLLQHNIRKSKRNLQDNFQEDPIQMSMIIYSCLKEERKILENAQRFNQAQSGNIQSTVMLDKQKELDSKVRNVKDKVMCIEHEIKSLEDLQDEYDFKCKTLQNREHETNGVAKSDQKQEQLLLKKMYLMLDNKRKEVVHKIIELLNVTELTQNALINDELVEWKRRQQSACIGGPPNACLDQLQNWFTIVAESLQQVRQQLKKLEELEQKYTYEHDPITKNKQVLWDRTFSLFQQLIQSSFVVERQPCMPTHPQRPLVLKTGVQFTVKLRLLVKLQELNYNLKVKVLFDKDVNERNTVKGFRKFNILGTHTKVMNMEESTNGSLAAEFRHLQLKEQKNAGTRTNEGPLIVTEELHSLSFETQLCQPGLVIDLETTSLPVVVISNVSQLPSGWASILWYNMLVAEPRNLSFFLTPPCARWAQLSEVLSWQFSSVTKRGLNVDQLNMLGEKLLGPNASPDGLIPWTRFCKENINDKNFPFWLWIESILELIKKHLLPLWNDGCIMGFISKERERALLKDQQPGTFLLRFSESSREGAITFTWVERSQNGGEPDFHAVEPYTKKELSAVTFPDIIRNYKVMAAENIPENPLKYLYPNIDKDHAFGKYYSRPKEAPEPMELDGPKGTGYIRTELISVSEVHPSRLQTTDNLLPMSPEEFDEVSRIVGSVEFDSMMNTV
modifications: fused to FRB domain

Trans-SUMOylation (p53-U; [1]): −
Trans-SUMOylation (U-MK2): −
Trans-SUMOylation (MK2-U): −
Trans-SUMOylation (U-MK5): −
Trans-SUMOylation (JUN-U; Table 2): −
Trans-SUMOylation (U-p38α): −
B5: GST-DRG1: DRG1 fused to GST tag (protein)
chain: MSSTLAKIAEIEAEMARTQKNKATAHHLGLLKARLAKLRRELITPKGGGGGGPGEGFDVAKTGDARIGFVGFPSVGKSTLLSNLAGVYSEVAAYEFTTLTTVPGVIRYKGAKIQLLDLPGIIEGAKDGKGRGRQVIAVARTCNLILIVLDVLKPLGHKKIIENELEGFGIRLNSKPPNIGFKKKDKGGINLTATCPQSELDAETVKSILAEYKIHNADVTLRSDATADDLIDVVEGNRVYIPCIYVLNKIDQISIEELDIIYKVPHCVPISAHHRWNFDDLLEKIWDYLKLVRIYTKPKGQLPDYTSPVVLPYSRTTVEDFCMKIHKNLIKEFKYALVWGLSVKHNPQKVGKDHTLEDEDVIQIVKK
modifications: left off: a dimerising Fc or GST
notes: DRG1 fused to GST tag
